Test: soluble on expression in E. coli; label from the status in PepcDB or PDB records

Row | Sequence | soluble on expression in E. coli
1 | MKAQEVPSTTFTGGETVLTFKGGVHPPELKEWSKDKPIERAPLPQKVFVFLSNHAGNPAKPVVSPGDEVKTGQVIGEPEGFISAYLHSPVTGRVLEIKKILHPILGKPIEAIVIERTSDDEWVHIETGDFERMSKEEILEIIKKAGIVGLGGAMFPTHVKLSPPPEKKVDTLIVNGAECEPVLTIDHRLMLERAEDILQGILIMMKVLGVQKAVVGVESNKMDAYHNLKKVFKGYPVDVALLRTKYPQGAEKQLIYAITGRMVPRGGLPMDVGVVVQNVGTCVAVKEAVVDGKPLVERGMTVSGDAVKNQKNLIVRIGTPVKDVIDYCGGIDENTERVILGGPMMGISITNLDIPVMKGTSGITAFLPKKSRPQKPCIRCSECVQVCPMNLQPYLLYLLSTKRKYDEAVENGLMDCIECGSCTYTCPSKIEHVRYIKLAKTVYRATRRGRRAAALEHHHHHH | soluble
2 | MKAVDQAPKKKSHERKRKEKRVHTGNGTAKKHHKRKSRSKSKNKPKNGLSCCRKKKKKSKKSKSKVTKKQPKKKVIKPLAPVPNEQLGEVVLVKNVKLPETPQKPENDTPVKDGLKPPRTTNSVEKINLSKESFNLSNEKIASDNGTEEKMEKKNVDSPADIQDGLKGKSKQKSEEKVHQKAKDDAKRGDECNKFKISDEKLTKWKLVAQETLKDDANIAVNEFEKVSGYLPPHISKNHFVSNMDKNRFVDVICMDHSRVKLTDSSYIHANWVDLNSSKKAILTQLPLSHTASDFWQMIIDQKIKCVLLIMTDGEFNKFGGNSVFPQNQDFLKFEDRFIRVGEFKQVELGKGWNLKVLSVSNGTYKTFIHVHHYKNWPHGSIPSDVKQIWQVQSYLRKYTDGHPPVYMSMSGCGRAGTFALFETAHMSLHNEQPSLNMVKCLENVRNGRLHSVQNLSQFSVVYTLIAEHVLGNGIGKKDVEEQENSIDNILRQLTIQ | not soluble
3 | MKAVTFPVPWEYLKRIFEGKNVFVKPATLRVEEGMKVIFYASRENQGWHGEAEVERVEYYTSVEEIIKKYRDKLFLTPEELRRYERDRARWDSGRRKRPWMVLVLRNIEKYPRVVKPKKFIVVSGRYVDEKEYEEIRRSTSLEHHHHHH | soluble
4 | MKDGMRVGERFTHDFVVPPHKTVRHLYPESPEFAEFPEVFATGFMVGLMEWACVRAMAPYLEPGEGSLGTAICVTHTAATPPGLTVTVTAELRSVEGRRLSWRVSAHDGVDEIGSGTHERAVIHLEKFNAKVRQKTPAG | soluble
5 | MKDIEKARRYLRNAGEMLRKNEVDEDGIYNNRKHVKIAGNRAYSGVLTALDAVLGNKTSDRKTLDWYEEELTNIDPKILPYFLTAYDVLYLAMGYDGNLIAAISKEGLDIAEKIINWAEQRTAA | not soluble
6 | MKDTLKIGLLGLGTVGTGVLTLLKEHQEKISQVTGMNVVIEKAFVRNLETKQAQAEEYGLSLTTSIDDILEDKEIQIVVELMGTIEPAKTYIMKALEKGKHIVTANKDLLAQHGSELVALAQKHHCDLYYEASVAGGIPILRTIANSLAADNIQQVLGIVNGTTNYMLTQMVSADKSYEEALAEAQALGFAEADPTNDVDGIDAAYKMVILSQFAFGMNVSLPQVDIRGIRGLSLDDVAMAKQLGYEIKLIGSAEQNENSISVEVAPMLVNQKHPIASVRNEYNAVFIKSAGVGESMYYGPGAGAKPTATSVVSDLITIAKNIRLATTGHMFNSYQHKTQLTSSENVFGQYYFSLDVPDTPGQFLQLTQLMTKAEVSFDQLVQQKSDGQRARIVAITHQISKAQMQQVVIAIQNTEAFQLLNVMKVIGDE | not soluble
7 | MKEARKRMVKRAVQEIKDGMNVNLGIGMPTLVANEIPDGVHVMLQSENGLLGIGPYPLEGTEDADLINAGKETITEVTGASYFDSAESFAMIRGGHIDLAILGGMEVSEQGDLANWMIPGKMVKGMGGAMDLVNGAKRIVVIMEHVNKHGESKVKKTCSLPLTGQKVVHRLITDLAVFDFVNGRMTLTELQDGVTIEEVYEKTEADFAVSQSVLNS | soluble
8 | MKEIIARHKAGEHLGICSVCSAHPLVIESALLFDLNTDNKVLIEATSNQVNQFGGYTGMKPADFRDFVYGIAQEVGFPRERLILGGDHLGPNCWQNEPAAAAMEKSVELIKAYVAAGFSKIHLDASMSCADDPTPLDPMVVARRAAVLCKAAEGTANEEQKCHLTYVIGTEVPVPGGEASTIGSVHVTREVDAARTLETHQIAFRESGLEEALSRVIAIVVQPGVEFDHTQIIHYQPQAAQALSAWIKETPMVYEAHSTDYQTRQAYRALVRDHYAILKVGPALTFALREAIFALAQMENELISPEQRSRVLEVIDEVMLNEPGYWKKYYRPTWSQAMVDIHFSLSDRIRYYWPHPRIRQSVEKLIANLNNVTLPLGLISQFMPVQFERLSEGVLTPTPHNLIIDKIQDVLRAYRFGCTPDVA | not soluble
9 | MKELKQAEQIRTWVQSILTDESSGHDWHHVSRVADLAAYIGEKEKADLFIVETAALVHDLIDVKLPDTVRLSVSEVYDQLVFFGVGKENADRVIHIITRMSFRDRGKLAKEPLSIEGKAVQDADRLDAIGAVGIARAFMFAGAKGHGLYGDEQSAYAHFFHKLLRLKDMMNTDTARELAEERHNFMLQFVRQLEKDIPGIDAETSLEHHHHHH | soluble
10 | MKELLKELVEKNRKFTADGNVANYIPELDKADKNALGIYVTTLDGQEFFAGDYNTKFTIQSISKIISLMLAILDNGEEYVFSKVGMEPSGDPFNSIRKLETSSRKKPYNPMINAGAIAVASMIKGKDDREKFSRLLNFAKLITEDDSLDLNYKIYIGESDTGFRNYSMAYFLKGEGIIEGNVNEALTVYFKQCSIEGTAKTISTLGKFLANDGVLSNGERILTTRMAKIIKTLMVTCGMYDSSGEFAVRVGIPSKSGVGGGICSVVPGKMGIGVYGPSLDKKGNSLAGGHLLEDLSAELSLNIFLEHHHHHH | not soluble
11 | MKEMTVSEIREVQLEMLAYIDKVARDNKIEYSLGGGSLLGAMRHKGFIPWDDDIDLMLERSQYERLMKALADANNSDFKLLHHSVEKNLWPFAKLYHTKSMYLSKTDRIHPWTGIFIDIFPLDRLPESAEERQRFFKKVHSAAANLMCTTYPNFASGSRKLYANARLILGLPRFIAYHGQAKKRAEIVDQVMETYNNQEVPYMGYTDSRYRLKEYFPREIFSEYEDVMFENIKTRKIKNEHAYLNQLYGGSYMELPPESKRESHSYYTWYWKEGLEHHHHHH | soluble
12 | MKENPSFLKEQIITYLGNKRALLSFLNNGFKVAKKELGKDKFSFCDIFSGSGVVSRFAKAHSNYILANDLEDYSKLINECYLANKDKDLLQNIKKYYKNLIQNLDFQKGFISELYAPKDDDDIKKNERVFYTFKNALYLDTIRQKIENEIPKELRHFFIAPLIYEASVHSNTSGVFKGFYKGKDGIGKFGGEGQNALKRIKGEIELKMPIFSNFSCEFEVMQKDANMLAKELDFFDVVYLDPPYNQHPYSSNYFMLNLIANYKKPEEISKISGIPKDWNRSTFNKSKFAQDALFELINDLKARVILLSYNCEGFVKKEIFLKRLSTLGKCRILEQKYNTFRASRNLKNRNIHLHEQLYILVKN | not soluble
13 | MKERFMSKFAIVFPGQGSQAVGMLADLAEQYAVVKQTFAEASEVLGYDLWALVQDGPVEDLNQTFRTQPALLAASVAIWRVWQQLGLEQPAVLAGHSLGEYSALVCAGVIDFKQAIKLVELRGQLMQQAVPAGTGAMYAIIGLEDEAIAKACADAAQGEVVSPVNFNSPGQVVIAGQKDAVERAGVLCKEAGAKRALPLPVSVPSHCALMKPAADELAKTLAELEFNAPQIPVINNVDVVAETDPVKIKDALIRQLYSPVRWTECVEQMSAQGVEKLIEMGPGKVLTGLTKRIVKTLEGVAVNDVASLDAVK | soluble
14 | MKERVIITGANGQLGKQLQEELNPEEYDIYPFDKKLLDITNISQVQQVVQEIRPHIIIHCAAYTKVDQAEKERDLAYVINAIGARNVAVASQLVGAKLVYISTDYVFQGDRPEGYDEFHNPAPINIYGASKYAGEQFVKELHNKYFIVRTSWLYGKYGNNFVKTMIRLGKEREEISVVADQIGSPTYVADLNVMINKLIHTSLYGTYHVSNTGSCSWFEFAKKIFSYANMKVNVLPVSTEEFGAAAARPKYSIFQHNMLRLNGFLQMPSWEEGLERFFIETKSH | not soluble
15 | MKEVEKNEIKRLSDRLDAIRHQQAGLSLVESADKYAELEKEKETLEAEIIRLREVHSQKLSKEAQKLMNLPFRRAITKKEQADMGKLKKSVRGLIVVHPMTALGREMGLKEMTGFAKSEF | not soluble

Source: the DeepSol protein solubility set
